Measured values as given in US20260152553A1.

Molecular target: CD19/CD20 bispecific CAR (Leu16 scFv-(G4S)4-FMC63 scFv-IgG4 hinge-CD28 TM-4-1BB-CD3 zeta)
Experiment: flow cytometry, staining of T cells (donor 1917) transduced with CD19/20 CAR lentiviral vector

CD19/CD20 bispecific CAR (Leu16 scFv-(G4S)4-FMC63 scFv-IgG4 hinge-CD28 TM-4-1BB-CD3 zeta), sequence (chain, as listed by the source): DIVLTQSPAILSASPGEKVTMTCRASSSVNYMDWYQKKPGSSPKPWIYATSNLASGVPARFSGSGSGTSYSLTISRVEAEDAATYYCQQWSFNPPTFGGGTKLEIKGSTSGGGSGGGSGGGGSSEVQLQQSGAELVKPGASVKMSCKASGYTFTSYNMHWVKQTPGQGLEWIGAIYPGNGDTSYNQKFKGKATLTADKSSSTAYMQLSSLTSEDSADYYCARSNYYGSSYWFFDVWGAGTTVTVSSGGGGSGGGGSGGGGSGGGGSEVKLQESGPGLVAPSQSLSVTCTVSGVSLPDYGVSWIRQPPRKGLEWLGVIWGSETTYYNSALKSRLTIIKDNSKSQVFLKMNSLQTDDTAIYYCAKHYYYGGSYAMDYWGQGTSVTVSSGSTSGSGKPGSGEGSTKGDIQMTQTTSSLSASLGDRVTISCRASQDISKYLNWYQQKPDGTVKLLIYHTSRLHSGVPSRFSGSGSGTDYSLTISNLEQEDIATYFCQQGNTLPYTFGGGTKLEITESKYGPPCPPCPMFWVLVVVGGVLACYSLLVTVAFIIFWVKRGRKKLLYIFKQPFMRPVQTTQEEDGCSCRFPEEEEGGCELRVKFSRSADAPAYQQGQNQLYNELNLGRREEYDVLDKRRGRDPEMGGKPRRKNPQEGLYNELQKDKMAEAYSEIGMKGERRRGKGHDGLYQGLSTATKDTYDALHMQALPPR

% Positive Cells: 59.6%
Substance: Byotinilated anti-FMC63 (Acros) (antibody)
